# Measurements published in article PMC8602290, “G3BP1 inhibits Cul3^SPOP to amplify AR signaling and promote prostate cancer” (Nature Communications, 2021).
# T1: Myc-DEK protein (affinity-purified) (UniProt P35659 1-375)
# T1 construct: DEK, recombinant Myc-tagged protein
# T1 sequence (looked up): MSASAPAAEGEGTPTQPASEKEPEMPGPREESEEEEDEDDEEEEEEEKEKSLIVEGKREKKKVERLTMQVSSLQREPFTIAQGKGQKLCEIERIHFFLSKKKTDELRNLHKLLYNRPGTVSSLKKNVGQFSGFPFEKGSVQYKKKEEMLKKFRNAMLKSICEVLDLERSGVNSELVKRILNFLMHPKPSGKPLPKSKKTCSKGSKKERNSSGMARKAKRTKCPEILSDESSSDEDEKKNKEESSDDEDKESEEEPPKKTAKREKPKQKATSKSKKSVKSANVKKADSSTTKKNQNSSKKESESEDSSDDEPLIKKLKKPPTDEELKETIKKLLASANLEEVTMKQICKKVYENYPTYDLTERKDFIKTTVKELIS
# Legend:
# [1] = biological target: T1, Myc-DEK protein (affinity-purified); assay: co-IP; in vitro binding assay with affinity-purified proteins: 4 ug His-SPOP with 0.125, 0.25 or 0.75 ug His G3BP1 in 1 ml pulldown buffer, 4 C, 60 min, then 0.56 ug Myc-DEK; IP with anti-SPOP and protein G agarose; wash 50 mM Tris pH 7.5, 200 mM NaCl; settings: both partners purified
# [2] = biological target: T2, His G3BP1 protein (affinity-purified) (UniProt Q13283 1-466); assay: as above; settings: both partners purified
# T2 construct: G3BP1, recombinant His-tagged protein
# [3] = biological target: T3, Speckle-type POZ protein (SPOP), endogenous in 22Rv1 cells (human (endogenous in 22Rv1), UniProt O43791 1-374); assay: proximity ligation; 22Rv1 cells transfected with FLAG-G3BP1 constructs; Duolink II kit, antibodies against FLAG-M2 and SPOP (endogenous); percentage of cells with signal; settings: partners not purified
# T3 construct: SPOP, endogenous protein of human 22Rv1 prostate cancer cells; also called endogenous SPOP; source: endogenous, 22Rv1 lysate or cells
binding result [1],binding result [2],percentage of cells with PLA positive signal [3] [%],Binder
binds,binds,,"His-SPOP protein (affinity-purified) (natural protein, UniProt O43791 1-374, looked up, SPOP, recombinant His-tagged protein) MSRVPSPPPPAEMSSGPVAESWCYTQIKVVKFSYMWTINNFSFCREEMGEVIKSSTFSSGANDKLKWCLRVNPKGLDEESKDYLSLYLLLVSCPKSEVRAKFKFSILNAKGEETKAMESQRAYRFVQGKDWGFKKFIRRDFLLDEANGLLPDDKLTLFCEVSVVQDSVNISGQNTMNMVKVPECRLADELGGLWENSRFTDCCLCVAGQEFQAHKAILAARSPVFSAMFEHEMEESKKNRVEINDVEPEVFKEMMCFIYTGKAPNLDKMADDLLAAADKYALERLKVMCEDALCSNLSVENAAEILILADLHSADQLKTQAVDFINYHASDVLETSGWKSMVVSHPHLVAEAYRSLASAQCPFLGPPRKRLKQS"
,,70,"FLAG-G3BP1^RRM (22Rv1) (domain or fragment, UniProt Q13283 338-466, looked up, also called FLAG-RRM; G3BP1^RRM-RGG; source: 22Rv1, transfected, in cells or lysate) DSHQLFIGNLPHEVDKSELKDFFQSYGNVVELRINSGGKLPNFGFVVFDDSEPVQKVLSNRPIMFRGEVRLNVEEKKTRAAREGDRRDNRLRGPGGPRGGLGGGMRGPPRGGMVQKPGFGVGRGLAPRQ"
